From IntAct's records for PubMed 9891048

B1: DNA damage checkpoint control protein RAD17 (Saccharomyces cerevisiae), P48581 (parent)
chain: MRINSELANKFSASTVHLEHITTALSCLTPFGSKDDVLIFIDADGLSFVRENNHVIKIQLLLSRELFMSYSYRNETEDHMKLCVKINHILDSVSVMNRNSDDIVECTLSYDGHGSPFVLIFEDSFISERVEYSTYLIKDFDTNGLELDRERISFEAIIKGEALHSALKDLKEIGCKECYVYAKTEANDENVFALISKSQLGFSKIKLPSNRSILEKLQVFDGDSTTVIDGFAVIGFFDFTSFDKIRKSTKIASKVLFRMDVHGVLSVNILSQTDDVIITDTTRPSNNRPGSIRQLQLPKDYPGIVIEVCMLEKESIDEAAQTEIELLMETNELGNRNSFKKSTIRKRYGTDKGNETSNDNLLQLNGKKIKLPSEEENNKNRESEDEENHCKYPTKDIPIFF
partner: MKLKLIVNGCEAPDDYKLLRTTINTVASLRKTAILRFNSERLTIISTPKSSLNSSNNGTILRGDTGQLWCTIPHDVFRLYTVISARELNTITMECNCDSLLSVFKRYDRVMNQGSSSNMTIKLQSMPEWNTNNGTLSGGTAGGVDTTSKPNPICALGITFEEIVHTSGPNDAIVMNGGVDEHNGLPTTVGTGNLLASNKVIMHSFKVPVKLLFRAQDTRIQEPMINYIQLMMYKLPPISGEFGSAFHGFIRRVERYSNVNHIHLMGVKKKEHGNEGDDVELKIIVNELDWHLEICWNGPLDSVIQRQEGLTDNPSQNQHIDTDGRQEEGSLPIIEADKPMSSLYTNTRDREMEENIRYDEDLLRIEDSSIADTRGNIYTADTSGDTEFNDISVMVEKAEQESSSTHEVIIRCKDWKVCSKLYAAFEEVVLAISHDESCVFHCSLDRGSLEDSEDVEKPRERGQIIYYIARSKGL

Variants of: B1
Conditions: with mec3_yeast MEC3, Q02574
In the case of E128K, the “effect of a mutation on the interaction” value is reported as “decreasing interaction”.
